For the experiment, the target named is GST-PTN(60-110) fusion protein (human). The experiment is described as follows: pull-down.
Sequence of GST-PTN(60-110) fusion protein (human) (P21246 60-110): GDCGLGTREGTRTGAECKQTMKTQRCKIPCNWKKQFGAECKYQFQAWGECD

Regarding “Neuropilin-1 (NRP-1), endogenous (from UniProt O14786 22-923) (receptor)”, the NRP-1 pulled down, percent of that with GST-PTN(1-136) came to 45%.

Values taken from paper PMC4674489.
